This passage reports % Binding of WT results from PMC7785020, “A unique hormonal recognition feature of the human glucagon-like peptide-2 receptor” (Cell Research, 2020).

Holding throughout (experiment): radioligand binding; competition on transiently transfected COS-7 cells: unlabeled teduglutide 0.1 nM to 1 μM against 10–15 pM [125I]GLP-2(1–33, M10Y); 4 h, 4 °C; 50 mM HEPES pH 7.4, 1 mM CaCl2, 5 mM MgCl2, 0.5% BSA; three-parameter logistic fit
Test [1] deals with GLP-2R H268^3.37A (human) (UniProt O95838).
The next test has as its target GLP-2R ECL1 (GLP-1R) (UniProt O95838).
Test [2] deals with GLP-2R W249^ECL1A (human) (UniProt O95838).
The target of test [3] is GLP-2R W340^5.36A (human) (UniProt O95838).
In test [4] the target is GLP-2R N334^ECL2 A (human) (UniProt O95838).
For test [5], the target named is GLP-2R N247^ECL1A (human) (UniProt O95838).
Test [6] concerns the target GLP-2R D244^ECL1A (human) (UniProt O95838).
Test [7] has as its target GLP-2R Y252^ECL1A (human) (UniProt O95838).

In the case of [^125I]GLP-2(1–33, M10Y) (peptide), the % Binding of WT amounted to 0.7% in test [1]; 1.2% in the test with GLP-2R ECL1 (GLP-1R); 2.9% in test [2]; 8.6% in test [3]; 2% in test [4]; 135% in test [5]. Besides, the % Binding of WT was 77.5% in test [6] and 6.3% in test [7].
